The values that follow come from patent publication US20100092974A1, “METHODS FOR SCREENING FOR MODULATORS OF CCRL2” (The Board of Trustees of the Leland Stanford Junior …, priority 2008, published 2010).

pEC50: −log10 of the molar value.

Test [1] addresses T1, mCRTH2 (Mus musculus, UniProt Q9Z2J6).
T1 construct: The coding regions of mCCRL2, huCCRL2, mCRTH2, and huCCR10 were amplified from genomic DNA; expressed in transfected cells
T1 sequence (Q9Z2J6 1-382): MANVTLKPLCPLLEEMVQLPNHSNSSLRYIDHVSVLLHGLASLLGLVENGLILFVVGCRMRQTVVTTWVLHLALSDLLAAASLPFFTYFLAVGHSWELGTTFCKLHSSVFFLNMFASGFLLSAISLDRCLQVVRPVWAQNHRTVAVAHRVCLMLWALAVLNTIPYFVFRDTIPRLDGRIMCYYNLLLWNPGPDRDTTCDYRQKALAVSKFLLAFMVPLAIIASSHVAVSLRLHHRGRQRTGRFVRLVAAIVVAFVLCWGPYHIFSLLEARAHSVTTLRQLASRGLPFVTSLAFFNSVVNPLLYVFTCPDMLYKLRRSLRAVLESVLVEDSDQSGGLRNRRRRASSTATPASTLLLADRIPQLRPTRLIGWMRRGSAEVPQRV
Put plainly: radioligand binding to untransfected or mCRTH2-HA-transfected cells. As to conditions: data not shown.

In test [2] the target is T2, mCCRL2 (Mus musculus, UniProt O35457).
T2 construct: The coding regions of mCCRL2, huCCRL2, mCRTH2, and huCCR10 were amplified from genomic DNA; expressed in transfected cells
T2 sequence (O35457 1-360): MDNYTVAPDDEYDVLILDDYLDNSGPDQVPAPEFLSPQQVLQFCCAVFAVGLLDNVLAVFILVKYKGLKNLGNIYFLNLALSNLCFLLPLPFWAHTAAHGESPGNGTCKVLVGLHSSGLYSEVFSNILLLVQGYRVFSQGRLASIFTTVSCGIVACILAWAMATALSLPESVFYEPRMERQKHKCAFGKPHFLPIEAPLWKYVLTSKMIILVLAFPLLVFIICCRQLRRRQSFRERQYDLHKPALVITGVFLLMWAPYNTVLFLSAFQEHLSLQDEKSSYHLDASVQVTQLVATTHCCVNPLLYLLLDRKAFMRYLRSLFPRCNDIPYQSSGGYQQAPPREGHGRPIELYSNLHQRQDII
Put plainly: immunofluorescence-based chemerin-binding assay, mCCRL2-HA L1.2. As to conditions: read-out: EC50, untagged chemerin vs His8-tagged chemerin binding; 10 nM His8-tagged serum form chemerin, 30 min on ice, anti-His6 PE.

The target of test [3] is T1, mCRTH2. Put plainly: immunofluorescence-based chemerin-binding assay, mCRTH2-HA L1.2. Conditions: 10 nM His8-tagged chemerin, anti-His6 PE.
The subject of test [4] is mouse peritoneal mast cells. Kind of test: immunofluorescence chemerin binding to peritoneal mast cells (WT or CCRL2 KO).
Test [5] concerns the target T2, mCCRL2. Put plainly: intracellular calcium mobilization, mCCRL2/L1.2 transfectants. The format is cell-based. As to conditions: Fluo-4; CXCL12 acts via endogenous CXCR4. The protocol:
(§1) Chemoattractant-stimulated Ca^2+-mobilization was performed following Alliance for Cell Signaling protocol ID PP00000210. Cells (3×10^6/mL) were loaded with 4 μM Fluo4-AM and 0.16% Pluronic acid F-127 (Molecular Probes) in modified Iscove's medium (Iscove's medium with 1% heat inactivated bovine calf serum and 2 mM L-glutamine, Invitrogen) for 30 minutes at 37° C. The samples were mixed every 10 minutes during loading, washed once, resuspended at up to 2×10^6/mL in the same buffer, and allowed to rest in the dark for 30 minutes at room temperature. Chemoattractant-stimulated change in Ca^2+-sensitive fluorescence of Fluo-4 was measured over real-time with a FACsScan flow cytometer and CellQuest software (BD Biosciences) at room temperature under constant stirring (500 rpm). Fluorescent data were acquired continuously up to 1024 seconds at 1-second intervals. The samples were analyzed for 45 seconds to establish basal state, removed from the nozzle to add the stimuli, and then returned to the nozzle. Mean channel fluorescence over time was analyzed with FlowJo (TreeStar, Ashland, Oreg., USA) software. […] 500 μl of these chemerin-loaded cells were added to mCMKLR1/L1.2 cells loaded with Fluo4-AM, and calcium mobilization was evaluated.

In test [6] the target is T3, mCMKLR1 (Mus musculus, UniProt P97468).
T3 construct: expressed in transfected cells; host or cells: L1.2 mouse pre-B lymphoma cells
T3 sequence (P97468 1-371): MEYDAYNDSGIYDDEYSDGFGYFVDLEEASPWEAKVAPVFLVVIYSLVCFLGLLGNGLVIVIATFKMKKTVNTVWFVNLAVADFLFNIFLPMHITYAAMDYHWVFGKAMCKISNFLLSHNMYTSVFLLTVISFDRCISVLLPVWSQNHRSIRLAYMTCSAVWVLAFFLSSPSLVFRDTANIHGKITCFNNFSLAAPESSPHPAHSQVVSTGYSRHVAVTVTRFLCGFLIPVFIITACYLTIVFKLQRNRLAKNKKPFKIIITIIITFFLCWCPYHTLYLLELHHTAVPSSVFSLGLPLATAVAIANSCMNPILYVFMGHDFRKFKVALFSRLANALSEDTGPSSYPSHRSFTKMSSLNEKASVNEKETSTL
Kind of test: intracellular calcium mobilization, mCMKLR1 L1.2 transfectants. Conditions: Fluo-4. The format is cell-based. Here is the method:
as §1

Test [7] deals with mouse peritoneal mast cells. Put plainly: intracellular calcium mobilization, freshly isolated peritoneal mast cells. The format is cell-based. As to conditions: 1000 nM chemerin, 100 nM ATP. The protocol: as §1
Test [8] deals with mouse peritoneal mast cells. Put plainly: in vitro transwell chemotaxis, peritoneal mast cells. The test is classed as cell-based. As to conditions: SSChigh CD11b- c-kit+ cells. The protocol: For migration experiments using cell lines, 2.5×10^5 cells/100 μl chemotaxis media (RPMI+10% fetal calf serum) were added to the top wells of 5-um pore transwell inserts (Costar, Corning, N.Y., USA), and test samples in 600 μl media were added to the bottom wells. After incubating the transwell plates for 1.5 hours at 37° C., the bottom wells were harvested and flow cytometry was used to assess migration. For primary cell chemotaxis, 1×10^6 cells/100 μl were added to the top well, and, following a 2 hour incubation at 37° C., polystyrene beads (15.0 μm diameter, Polysciences, Warrington, Pa., USA) were added to each well to facilitate normalization of the cell count. The cells were then stained for c-kit, F4/80, and/or CD11b expression and analyzed by flow cytometry. A ratio was generated and percent input migration was calculated.

Test [9] deals with T3, mCMKLR1. Put plainly: receptor internalization assay, mCMKLR1-HA L1.2. The format is cell-based. As to conditions: 100 nM chemerin. The protocol: The cells were then washed with 200 μl PBS and stained with mouse anti-HA (Covance, Inc) or mIgG1 isotype control, followed by staining with secondary anti-mouse IgG1 PE, fixed, and analyzed by flow cytometry.

As to “chemerin: protein ligand for signaling receptor CMKLR1; serum form human chemerin expressed in baculovirus-infected insect cells, His8-tag removed”, in the test with mCRTH2 [1], the radiolabeled chemerin binding result is listed as “no binding was detected”. Further, the pEC50 with mCCRL2 [2] is 7.35. Moreover, the chemerin binding entry with mCRTH2 [3] was “did not bind”. In [4] (WT mice), the “binding to freshly isolated peritoneal mast cells” value was “bound”. In addition, in [4] (WT peritoneal mast cells), the “preference for binding of the pro-form vs. the active serum form” value is listed as “no obvious preference”. In addition, the “binding to peritoneal mast cells” value in [4] (mCCRL2 KO mice) is “did not bind”. Also, the intracellular calcium mobilization result is on record as “failed to trigger” with mCCRL2 [5], “robust calcium flux” with mCMKLR1 [6] and “did not trigger” in test [7]. In test [8], the transwell migration result is listed as “failed to migrate”. In addition, the “time to ligand-induced receptor internalization” value in the test with mCMKLR1 [9] is given as ≤ 15 min.
